Reference: patent publication US20060240015A1 (Kyowa Kirin, published 2006)

Legend:
[1] = target: T1, human insulin-like growth factor-I (human, UniProt P05019 49-118); experiment: SPR (Biacore 2000)
T1 construct: mature; In the ELISAs it was coated as a conjugate with methylated BSA; in Biacore it was amine-coupled to a CM-5 chip; also called hIGF-I; IGF-I

[2] = target: T2, human insulin-like growth factor-II (human, UniProt P01344 25-91); experiment: SPR (Biacore 2000)
T2 construct: also called hIGF-II; IGF-II
T2 sequence (P01344 25-91 limits assumed): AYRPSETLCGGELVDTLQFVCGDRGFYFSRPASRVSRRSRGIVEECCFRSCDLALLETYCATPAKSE

[3] = target: T3, partial peptide of hIGF-I corresponding to 1st to 18th (human); experiment: competitive ELISA, methylated BSA-hIGF-I coated, peptide in solution
T3 construct: also called p1-18
T3 peptide: GPETLSGAELVDALQFVC

[4] = target: T4, partial peptide of hIGF-I corresponding to 14th to 30th (human); experiment: as above
T4 construct: also called p14-30
T4 peptide: CLQFVAGDRGFYFNKPTG

[5] = target: T5, partial peptide of hIGF-I corresponding to 24th to 35th (human); experiment: as above
T5 construct: also called p24-35
T5 peptide: CYFNKPTGYGSSS

[6] = target: T6, partial peptide of hIGF-I corresponding to 29th to 41st (human); experiment: as above
T6 construct: also called p29-41
T6 peptide: CTGYGSSSRRAPQT

[7] = target: T7, partial peptide of hIGF-I corresponding to 36th to 47th (human); experiment: as above
T7 construct: also called p36-47
T7 peptide: RRAPQTGIVDEC

[8] = target: T8, partial peptide of hIGF-I corresponding to 41st to 56th (human); experiment: as above
T8 construct: also called p41-56
T8 peptide: CTGIVDEAAFRSADLRR

[9] = target: T9, partial peptide of hIGF-I corresponding to 52nd to 70th (human); experiment: as above
T9 construct: also called p52-70
T9 peptide: CDLRRLEMYAAPLKPAKSA

[10] = target: T10, partial peptide of hIGF-I corresponding to 61st to 70th (human); experiment: as above
T10 construct: also called p61-70
T10 peptide: CAPLKPAKSA

[11] = target: T11, partial peptide of hIGF-I corresponding to 41st to 56th having an inner Cys (human); experiment: as above
T11 construct: also called p41-56C; p41-56c
T11 peptide: CTGIVDECCFRSCDLRR

[12] = target: T1, human insulin-like growth factor-I; experiment: SPR (Biacore 2000), hIGF-I amine-coupled on CM-5, antibody as analyte, 25 C
Protocol: (§1) In order to analyze the binding activity of the anti-hIGF rat monoclonal KM1468 to an antigen hIGF-I or hIGF-II, the binding affinities of the anti-hIGF rat monoclonal KM1468, a commercially available anti-hIGF-I antibody sm1.2 and a commercially available anti-hIGF-II antibody S1F2 to hIGF-I and hIGF-II were assayed in the following manner using the biosensor Biacore 2000 (manufactured by Biacore) utilizing surface plasmon resonance. For the diluting samples and as the reaction buffers in measurement, HBS-EP (10 mM HEPES, 150 mM NaCl, 3 mM EDTA, 0.005% Tween 20, pH 7.4) (manufactured by Biacore) was used.
(§2) Using an amine coupling (manufactured by Biacore), hIGF-I or hIGF-II were immobilized at 36.0 pg/mm² or 41.7 pg/mm², respectively, on sensor tip CM-5 (manufactured by Biacore). After 3 types of the antibodies which were diluted in 6 steps in 2-fold serial dilutions starting from 20 μg/ml as analytes, were added at a flow rate of 20 μl/minute for 2 minutes, the dissociation of the analytes was subsequently observed over 5 minutes. The reaction was carried out at 25° C. Based on the reaction curves at various concentrations, association constant Kass and dissociation constant Kdiss were calculated, to calculate the binding constant KA (M⁻¹) of these various antibodies. The binding constant KA is calculated by KA=Kass/Kdiss.

[13] = target: T2, human insulin-like growth factor-II; experiment: SPR (Biacore 2000), hIGF-II amine-coupled on CM-5, antibody as analyte, 25 C
Protocol: as §1, §2

human insulin = target: T12, human insulin (human, UniProt P01308 25-54; P01308 90-110); experiment: competitive ELISA, methylated BSA-hIGF-I or methylated BSA-hIGF-II coated, insulin in solution
T12 construct: Bought
T12 sequence (P01308 25-54 limits assumed, chain 1 of 2): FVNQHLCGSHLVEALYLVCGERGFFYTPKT
T12 sequence (P01308 90-110 limits assumed, chain 2 of 2): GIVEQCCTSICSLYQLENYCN
Description: Cross reactivity of the purified anti-hIGF rat antibody KM1468 with hIGF-II and human insulin was examined by the competitive ELISA shown below. As the antigens, hIGF-I (manufactured by Pepro Tech), hIGF-II (manufactured by Pepro Tech) and human insulin (manufactured Wako Pure Chemical Industries) were used.
The methylated BSA-hIGF-I antigen prepared in Reference Example 1(1) or a methylated BSA-hIGF-II antigen prepared in the same manner as in Reference Example 1(1) was immobilized on a plate in accordance with the method shown in Reference Example 1(4), at a concentration of 0.1 μg/ml in the case of the methylated BSA-hIGF-I antigen, or at a concentration of 1.0 μg/ml in the case of the methylated BSA-hIGF-II antigen, KM1468 diluted to 0.6 μg/ml was dispensed at 25 μl/well, and then each of 4-fold serial dilutions of hIGF-I, hIGF-II or human insulin prepared by starting from 20 μg/ml was dispensed at 25 μl/well, mixed and left at room temperature for 1 hour. After the reaction and subsequent washing with Tween-PBS, 1000-fold diluted peroxidase-labeled rabbit anti-rat Ig antibody (manufactured by DAKO) was added at 50 μl/well as the secondary antibody in the case of the anti-hIGF antibody KM1468. […] The results are represented by relative values (%) wherein OD415 when an antibody was added alone was defined as 100.

T1 sequence (P05019 49-118): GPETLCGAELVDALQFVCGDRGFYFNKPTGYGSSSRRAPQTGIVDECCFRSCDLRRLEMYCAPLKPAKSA

B1: anti-hIGF rat monoclonal antibody KM1468 (antibody, rat IgG2b, V domains shown)
VH: EVHLVESGGGLVQPGRSLKLSCAASGFTFSNYYMTWVRQAPTKGLEWVAYISSGGGSTYYRDSVKGRFTISRDNAKSTLYLQMDSLRSEDTATYYCTTEDYGYWFAYWGQGTLVTVSS
VL: EIVLTQSPTTMAASPGEKVTITCRASSSVSYMHWFQQKSGTSPKPWIYGTSKLASGVPDRFSGSGSGTSYSLTISSMEAEDAATYYCLQRSSYPPTFGAGTKLELK
notes: Rat IgG2b, kappa; Hybridoma FERM BP-7978; also called anti-hIGF antibody KM1468; anti-hIGF rat antibody KM1468
**Q.** What does the source list for B1?
**A.** KA relative to S1F2 (fold) [1]: ~18 fold; KA relative to sm1.2 (fold) [1]: ~42 fold; KA relative to S1F2 (fold) [2]: ~3.6 fold; KA relative to sm1.2 (fold) [2]: ~120 fold; binding result [3]: no binding (tested: 3-fold serial dilutions from 50 µg/mL); binding result [4]: no binding (tested: 3-fold serial dilutions from 50 µg/mL); binding result [5]: no binding (tested: 3-fold serial dilutions from 50 µg/mL); binding result [6]: no binding (tested: 3-fold serial dilutions from 50 µg/mL); binding result [7]: no binding (tested: 3-fold serial dilutions from 50 µg/mL); binding result [8]: no binding (tested: 3-fold serial dilutions from 50 µg/mL); binding result [9]: no binding (tested: 3-fold serial dilutions from 50 µg/mL); binding result [10]: no binding (tested: 3-fold serial dilutions from 50 µg/mL); binding result [11]: no binding (tested: 3-fold serial dilutions from 50 µg/mL); Ka [12]: 7.86e+09 M⁻¹; Ka [13]: 8.63e+09 M⁻¹; binding result (human insulin): no binding
